From patent US20240279325A1 (Chugai, published 2024)
Blank lines part the entries; values can stand above or below the binder they belong to.

Key:
[1] = target: T1, human FcγRIIa type R (allotype R131) extracellular domain with C-terminal His tag (human, UniProt P12318 34-217); assay: SPR (Biacore), antibody captured, FcγR analyte
T1 construct: also called FcγRIIaR
T1 chain: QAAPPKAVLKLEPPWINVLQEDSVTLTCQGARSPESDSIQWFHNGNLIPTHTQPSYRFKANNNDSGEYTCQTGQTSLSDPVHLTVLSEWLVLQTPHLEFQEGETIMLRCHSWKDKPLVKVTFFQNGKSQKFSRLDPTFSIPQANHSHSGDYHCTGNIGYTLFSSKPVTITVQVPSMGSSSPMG

[2] = target: T2, human FcγRIIIa type V (allotype V158) extracellular domain with C-terminal His tag (human, UniProt P08637 17-208); assay: SPR (Biacore), antibody captured, FcγR analyte
T2 construct: also called FcγRIIIaV
T2 sequence (P08637 other isoform, or with tags, fused parts or gaps): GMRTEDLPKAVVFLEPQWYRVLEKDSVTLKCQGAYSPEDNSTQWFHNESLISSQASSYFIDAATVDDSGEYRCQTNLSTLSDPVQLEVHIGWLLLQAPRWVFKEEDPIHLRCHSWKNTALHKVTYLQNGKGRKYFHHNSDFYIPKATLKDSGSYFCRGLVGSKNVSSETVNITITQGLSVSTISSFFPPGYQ

[3] = target: T3, human FcγRIIIa type V (allotype V158) extracellular domain with C-terminal His tag (human, UniProt P08637 17-208); assay: SPR (Biacore), captured antibody, FcγR analyte
T3 construct: also called FcγRIIIaV; FcγRIIIa V type
T3 sequence (P08637 other isoform, or with tags, fused parts or gaps): as above

[4] = target: T4, human FcγRIa extracellular domain with C-terminal His tag (human, UniProt P12314 16-292); assay: SPR (Biacore), captured antibody, FcγR analyte
T4 construct: extracellular domain; also called FrgRIa

[5] = target: T5, human FcγRIIa type R (allotype R131) extracellular domain with C-terminal His tag (human, UniProt P12318 34-217); assay: SPR (Biacore), captured antibody, FcγR analyte
T5 construct: extracellular domain; also called FcγRIIaR; FrgRIIaR
T5 sequence (looked up): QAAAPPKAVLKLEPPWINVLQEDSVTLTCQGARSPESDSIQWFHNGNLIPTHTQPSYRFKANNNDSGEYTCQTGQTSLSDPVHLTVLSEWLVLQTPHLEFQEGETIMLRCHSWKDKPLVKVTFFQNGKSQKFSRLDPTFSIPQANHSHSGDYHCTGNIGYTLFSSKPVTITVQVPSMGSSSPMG

[6] = target: T6, human FcγRIIb extracellular domain with C-terminal His tag (human, UniProt P31994 43-217); assay: SPR (Biacore), captured antibody, FcγR analyte
T6 construct: extracellular domain; also called FrgRIIb
T6 sequence (looked up): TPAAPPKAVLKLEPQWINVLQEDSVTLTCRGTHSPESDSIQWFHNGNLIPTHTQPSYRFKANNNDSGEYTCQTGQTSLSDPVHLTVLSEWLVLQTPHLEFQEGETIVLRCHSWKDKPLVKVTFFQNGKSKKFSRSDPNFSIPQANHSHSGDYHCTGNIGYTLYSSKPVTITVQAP

[7] = target: T7, human FcγRIIIa type V (allotype V158) extracellular domain with C-terminal His tag (human, UniProt P08637 17-208); assay: SPR (Biacore), captured antibody, FcγR analyte
T7 construct: extracellular domain; also called FcγRIIIaV; FrgRIIIaV
T7 sequence (P08637 17-208 F176V): as the sequence (P08637 other isoform, or with tags, fused parts or gaps) above, with S179A counted along it

[8] = target: T8, human FcγRIIa type H (allotype H131) extracellular domain with C-terminal His tag (human, UniProt P12318 34-217); assay: SPR (Biacore), captured antibody, FcγR analyte
T8 construct: extracellular domain; also called FcγRIIaH; FrgRIIaH
T8 sequence (looked up): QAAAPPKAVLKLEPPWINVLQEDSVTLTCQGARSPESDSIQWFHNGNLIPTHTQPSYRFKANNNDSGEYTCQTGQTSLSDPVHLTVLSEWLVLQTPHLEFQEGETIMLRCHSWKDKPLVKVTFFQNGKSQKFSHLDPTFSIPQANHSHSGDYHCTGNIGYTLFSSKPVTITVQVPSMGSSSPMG

[9] = target: T9, human FcγRIIa type H (allotype H131) extracellular domain with C-terminal His tag (human, UniProt P12318 34-217); assay: SPR (Biacore), antibody captured, FcγR analyte
T9 construct: extracellular domain; also called FcγRIIaH; not shown: His tag at the C terminus
T9 sequence (looked up): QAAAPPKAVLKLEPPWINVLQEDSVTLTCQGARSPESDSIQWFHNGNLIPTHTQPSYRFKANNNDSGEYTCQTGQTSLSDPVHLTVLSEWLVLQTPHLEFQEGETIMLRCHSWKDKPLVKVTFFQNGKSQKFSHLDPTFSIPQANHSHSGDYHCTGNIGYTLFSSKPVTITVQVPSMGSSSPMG

[10] = target: T10, human FcγRIIb extracellular domain with C-terminal His tag (human, UniProt P31994 43-217); assay: SPR (Biacore), antibody captured, FcγR analyte
T10 construct: extracellular domain; not shown: His tag at the C terminus
T10 sequence (looked up): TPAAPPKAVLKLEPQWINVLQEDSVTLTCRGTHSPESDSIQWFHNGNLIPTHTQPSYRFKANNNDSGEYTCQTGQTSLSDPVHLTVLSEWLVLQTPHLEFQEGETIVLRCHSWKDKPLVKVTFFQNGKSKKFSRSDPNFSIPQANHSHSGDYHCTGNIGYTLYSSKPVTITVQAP

[11] = target: T11, FcγRIa extracellular domain, C-terminal His tag (human, UniProt P12314 16-292); assay: SPR (Biacore), antibody captured on chip, FcγR extracellular domain as analyte, 25 C
T11 construct: extracellular domain; not shown: His tag at the C terminus

[12] = target: T12, human FcγRIIa type H (allotype H131) extracellular domain with C-terminal His tag (human, UniProt P12318 34-217); assay: SPR (Biacore), captured antibody, FcγR analyte
T12 construct: also called FcγRIIaH
T12 sequence: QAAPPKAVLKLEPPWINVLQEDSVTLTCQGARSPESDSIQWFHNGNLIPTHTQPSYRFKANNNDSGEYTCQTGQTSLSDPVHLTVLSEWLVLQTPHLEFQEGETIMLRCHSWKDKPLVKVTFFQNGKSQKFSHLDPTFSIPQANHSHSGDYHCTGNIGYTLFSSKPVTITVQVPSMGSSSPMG

[13] = target: T13, human FcγRIIa type R (allotype R131) extracellular domain with C-terminal His tag (human, UniProt P12318 34-217); assay: SPR (Biacore), captured antibody, FcγR analyte
T13 construct: also called FcγRIIaR
T13 chain: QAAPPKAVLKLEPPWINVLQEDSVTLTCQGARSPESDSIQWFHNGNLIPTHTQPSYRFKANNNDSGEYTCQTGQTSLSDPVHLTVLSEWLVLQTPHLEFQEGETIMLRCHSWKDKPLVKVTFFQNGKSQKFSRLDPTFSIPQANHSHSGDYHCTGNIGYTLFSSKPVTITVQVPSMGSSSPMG

T11 sequence (P12314 16-292): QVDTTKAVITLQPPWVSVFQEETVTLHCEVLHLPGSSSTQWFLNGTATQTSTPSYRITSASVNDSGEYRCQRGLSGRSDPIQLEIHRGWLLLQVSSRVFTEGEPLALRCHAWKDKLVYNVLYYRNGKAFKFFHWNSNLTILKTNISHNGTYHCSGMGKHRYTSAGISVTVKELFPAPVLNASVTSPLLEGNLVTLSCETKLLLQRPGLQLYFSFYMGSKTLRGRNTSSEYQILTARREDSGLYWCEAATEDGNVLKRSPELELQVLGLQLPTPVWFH
T4 sequence (P12314 16-292): as above

B1: IL6R-BP112/IL6R-L (antibody, human IgG1, kappa, name in EU numbering)
heavy: QVQLQESGPGLVKPSETLSLTCAVSGHSISHDHAWSWVRQPPGEGLEWIGFISYSGITNYNPSLQGRVTISRDNSKNTLYLQMNSLRAEDTAVYYCARSLARTTAMDYWGEGTLVTVSSASTKGPSVFPLAPSSKSTSGGTAALGCLVKDYFPEPVTVSWNSGALTSGVHTFPAVLQSSGLYSLSSVVTVPSSSLGTQTYICNVNHKPSNTKVDKKVEPKSCDKTHTCPPCPAPELLGGDSVFLFPPKPKDTLMISRTPEVTCVVVDVSHEDGEVKFNWYVDGVEVHNAKTKPREEQYNSTYRVVSVLTVLHQDWLNGKEYKCKVSNKALPAPIEKTISKAKGQPREPQVYTLPPSRDELTKNQVSLTCLVKGFYPSDIAVEWESNGQPENNYKTTPPVLDSDGSFFLYSKLTVDKSRWQQGNVFSCSVMHEALHNHYTQESLSLSP
light: not shown
notes: Alterations introduced into IL6R-B3; also called P238D/P271G; copies: 2 + 2
Kd [1]: 3.5 µM | Kd [2]: 69 µM

B3: IL6R-BP198/IL6R-L (antibody, human IgG1, kappa, name in EU numbering)
heavy: QVQLQESGPGLVKPSETLSLTCAVSGHSISHDHAWSWVRQPPGEGLEWIGFISYSGITNYNPSLQGRVTISRDNSKNTLYLQMNSLRAEDTAVYYCARSLARTTAMDYWGEGTLVTVSSASTKGPSVFPLAPSSKSTSGGTAALGCLVKDYFPEPVTVSWNSGALTSGVHTFPAVLQSSGLYSLSSVVTVPSSSLGTQTYICNVNHKPSNTKVDKKVEPKSCDKTHTCPPCPAPDYLGGDSVFLFPPKPKDTLMISRTPEVTCVVVDVSDEDGEVKFNWYVDGVEVHNAKTKPREEQYNSTYRVVSVLTVLHQDWLNGKEYKCKVSNAALPKPIEKTISKAKGQPREPQVYTLPPSRDELTKNQVSLTCLVKGFYPSDIAVEWESNGQPENNYKTTPPVLDSDGSFFLYSKLTVDKSRWQQGNVFSCSVMHEALHNHYTQESLSLSP
light: not shown
notes: Alterations introduced into IL6R-B3, EU numbering; copies: 2 + 2
relative binding activity [4]: 104 % of IL6R-BF648/IL6R-L binding | relative binding activity [5]: 449 % of IL6R-BF648/IL6R-L binding | relative binding activity [6]: 164 % of IL6R-BF648/IL6R-L binding | relative binding activity [7]: 157 % of IL6R-BF648/IL6R-L binding | relative binding activity [8]: 188 % of IL6R-BF648/IL6R-L binding

B4: IL6R-BP202/IL6R-L (antibody, human IgG1, kappa, name in EU numbering)
heavy: QVQLQESGPGLVKPSETLSLTCAVSGHSISHDHAWSWVRQPPGEGLEWIGFISYSGITNYNPSLQGRVTISRDNSKNTLYLQMNSLRAEDTAVYYCARSLARTTAMDYWGEGTLVTVSSASTKGPSVFPLAPSSKSTSGGTAALGCLVKDYFPEPVTVSWNSGALTSGVHTFPAVLQSSGLYSLSSVVTVPSSSLGTQTYICNVNHKPSNTKVDKKVEPKSCDKTHTCPPCPAPELLGDDSVFLFPPKPKDTLMISRTPEVTCVVVDVSHEDGEVKFNWYVDGVEVHNAKTKPREEQYNSTYRVVSVLTVLHQDWLNGKEYKCKVSNAALPRPIEKTISKAKGQPREPQVYTLPPSRDELTKNQVSLTCLVKGFYPSDIAVEWESNGQPENNYKTTPPVLDSDGSFFLYSKLTVDKSRWQQGNVFSCSVMHEALHNHYTQESLSLSP
light: not shown
notes: EU numbering; copies: 2 + 2
Kd [9]: 92 µM | Kd [10]: 0.054 µM

B5: IL6R-BP182/IL6R-L (antibody, human IgG1, kappa, name in EU numbering)
heavy: QVQLQESGPGLVKPSETLSLTCAVSGHSISHDHAWSWVRQPPGEGLEWIGFISYSGITNYNPSLQGRVTISRDNSKNTLYLQMNSLRAEDTAVYYCARSLARTTAMDYWGEGTLVTVSSASTKGPSVFPLAPSSKSTSGGTAALGCLVKDYFPEPVTVSWNSGALTSGVHTFPAVLQSSGLYSLSSVVTVPSSSLGTQTYICNVNHKPSNTKVDKKVEPKSCDKTHTCPPCPAPDLLGGDSVFLFPPKPKDTLMISRTPEVTCVVVDVSHEDGEVKFNWYVDGVEVHNAKTKPREEQDNSTYRVVSVLTVLHQDWLNGKEYKCKVSNKALPKPIEKTISKAKGQPREPQVYTLPPSRDELTKNQVSLTCLVKGFYPSDIAVEWESNGQPENNYKTTPPVLDSDGSFFLYSKLTVDKSRWQQGNVFSCSVMHEALHNHYTQESLSLSP
light: not shown
notes: copies: 2 + 2
Kd [11]: 0.02 µM

The next lines start with the values.

Kd [3]: 9 µM
B2: IL6R-BP462/IL6R-L (antibody, human IgG1, kappa, name in EU numbering)
heavy: QVQLQESGPGLVKPSETLSLTCAVSGHSISHDHAWSWVRQPPGEGLEWIGFISYSGITNYNPSLQGRVTISRDNSKNTLYLQMNSLRAEDTAVYYCARSLARTTAMDYWGEGTLVTVSSASTKGPSVFPLAPSSKSTSGGTAALGCLVKDYFPEPVTVSWNSGALTSGVHTFPAVLQSSGLYSLSSVVTVPSSSLGTQTYICNVNHKPSNTKVDKKVEPKSCDKTHTCPPCPAPDLLGDDSVFLFPPKPKDTLMISRTPEVTCVVVDVAEEDGEVKFNWYVDGVEVHNAKTKPREEQYNSTYRVVSVLTVLHQDWLNGKEYKCKVSNKALPRPIEKTISKAKGQPREPQVYTLPPSRDELTKNQVSLTCLVKGFYPSDIAVEWESNGQPENNYKTTPVVLDSDGSFFLYSKLTVDKSRWQQGNVFSCSVMHEALHNHYTQESLSLSP
light: not shown
notes: copies: 2 + 2

Kd [12]: 10 µM
B6: IL6R-BP470/IL6R-L (antibody, human IgG1, kappa, name in EU numbering)
heavy: QVQLQESGPGLVKPSETLSLTCAVSGHSISHDHAWSWVRQPPGEGLEWIGFISYSGITNYNPSLQGRVTISRDNSKNTLYLQMNSLRAEDTAVYYCARSLARTTAMDYWGEGTLVTVSSASTKGPSVFPLAPSSKSTSGGTAALGCLVKDYFPEPVTVSWNSGALTSGVHTFPAVLQSSGLYSLSSVVTVPSSSLGTQTYICNVNHKPSNTKVDKKVEPKSCDKTHTCPPCPAPDLLGDDSVFLFPPKPKDTLMISRTPEVTCVVVDVSDEDGEVKFNWYVDGVEVHNAKTKPREEQDNSTYRVVSVLTVLHQDWLNGKEYKCKVSNKALPRPITKTISKAKGQPREPQVYTLPPSRDELTKNQVSLTCLVKGFYPSDIAVEWESNGQPENNYKTTPPVLDSDGSFFLYSKLTVDKSRWQQGNVFSCSVMHEALHNHYTQESLSLSP
light: not shown
notes: copies: 2 + 2

Kd [13]: 3 µM
B7: IL6R-BP514/IL6R-L (antibody, human IgG1, kappa, name in EU numbering)
heavy: QVQLQESGPGLVKPSETLSLTCAVSGHSISHDHAWSWVRQPPGEGLEWIGFISYSGITNYNPSLQGRVTISRDNSKNTLYLQMNSLRAEDTAVYYCARSLARTTAMDYWGEGTLVTVSSASTKGPSVFPLAPSSKSTSGGTAALGCLVKDYFPEPVTVSWNSGALTSGVHTFPAVLQSSGLYSLSSVVTVPSSSLGTQTYICNVNHKPSNTKVDKKVEPKSCDKTHTCPPCPAPDLLGDDSVFLFPPKPKDTLMISRTPEVTCVVVDVSEEDGFVKFNWYVDGVEVHNAKTKPREEQYNSTYRVVSVLTVLHQDWLNGKEYKCKVSNKALPAPIEKTISKAKGQPREPQVYTLPPSRDELTKNQVSLTCLVKGFYPSDIAVEWESNGQPENNYKTTPPVLDSDGSFFLYSKLTVDKSRWQQGNVFSCSVMHEALHNHYTQESLSLSP
light: not shown
notes: copies: 2 + 2
